Biological target: T1, human VEGFR-2/Fc (R&D Systems) (human, UniProt P35968 20-764)
T1 construct: also called recombinant VEGFR2/Fc; VEGFR/Fc; not shown: Fc part of the bought fusion protein (captured by anti-human IgG-Fc in the ELISA)
Assay: SPR, Biacore 3000, human VEGFR-2/Fc immobilized

T1 sequence (P35968 20-764): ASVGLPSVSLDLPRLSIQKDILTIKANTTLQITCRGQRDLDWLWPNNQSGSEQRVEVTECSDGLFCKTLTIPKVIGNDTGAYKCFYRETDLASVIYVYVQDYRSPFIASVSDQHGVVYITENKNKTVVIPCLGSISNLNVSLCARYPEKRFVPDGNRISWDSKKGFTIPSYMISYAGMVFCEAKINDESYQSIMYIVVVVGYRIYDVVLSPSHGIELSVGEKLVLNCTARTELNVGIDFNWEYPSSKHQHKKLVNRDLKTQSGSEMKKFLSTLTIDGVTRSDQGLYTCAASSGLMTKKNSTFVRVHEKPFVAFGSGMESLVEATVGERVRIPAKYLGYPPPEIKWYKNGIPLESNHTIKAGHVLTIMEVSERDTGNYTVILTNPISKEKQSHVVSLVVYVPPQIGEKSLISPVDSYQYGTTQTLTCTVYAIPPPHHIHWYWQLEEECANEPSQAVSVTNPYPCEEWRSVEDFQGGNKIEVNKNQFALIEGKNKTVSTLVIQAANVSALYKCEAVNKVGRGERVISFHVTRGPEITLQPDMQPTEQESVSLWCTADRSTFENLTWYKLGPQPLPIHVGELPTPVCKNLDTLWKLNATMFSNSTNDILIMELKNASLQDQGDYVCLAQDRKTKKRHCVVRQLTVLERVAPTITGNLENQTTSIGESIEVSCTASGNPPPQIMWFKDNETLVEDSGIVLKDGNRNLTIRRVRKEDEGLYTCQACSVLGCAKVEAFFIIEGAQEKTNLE

Kd: 80 nM
koff: 0.015 s⁻¹
B1: AB4 with linker 2; VR2-38 (SEQ ID NO:27) (VHH)
VHH: QVKLEESGGGLVQAGGSLRLSCAASGGTASSYAMGWFRQAPGKEREFVAAISRSGGNTDYVDSAKGRFTISRDDAKNTVSLQMNSLRLEDTAVYYCAARYAGTWPNDAGTVYWLPPNYNYWGQGTQVTVSS

From patent US20180230219A1 (HELIX BIOPHARMA, published 2018)
